Patent US20210252159A1, “CONJUGATES OF CARTILAGE-HOMING PEPTIDES” (priority 2018, published 2021)
Positions of bridges follow the written chain, without caps; N, C: chain ends. Residues, ends and D or L forms follow the SMILES beside them. *: point of attachment. X4 = C[C@@H]1C[C@H]2[C@@H]3CCC4=CC(=O)C=C[C@]4(C)[C@@]3(F)[C@@H](O)C[C@]2(C)[C@@]1(O)C(=O)COC(=O)[C@H]1CC[C@H](C(=O)*)CC1; X3 = C[C@@H]1C[C@H]2[C@@H]3CCC4=CC(=O)C=C[C@]4(C)[C@@]3(F)[C@@H](O)C[C@]2(C)[C@@]1(O)C(=O)COC(=O)CCCC(=O)*

Experiments:
[1] = Hydrolysis assay of peptide-drug conjugates in human plasma (free Dex by LC/MS); format: in vitro ADME; details: 37° C., release of free Dex, time points to 32 hr, read-out: Half-life (hours) as measured in the hydrolysis experiments (converted)
Description: In order to determine hydrolysis rates, conjugates can be diluted in PBS, rat plasma, or human plasma and incubated at 37 degrees. Samples can be taken at designated time-points (e.g., 1, 2, 3, 5, 10, 15, 20, 25, 30, 45, 60, or 90 minutes and/or hours after administration). Internal standards such as triamcinolone acetonide (TAA) can be added as an internal standard, and then active agent/TAA can be extracted using acetonitrile, for example. The samples can be dried down, reconstituted, and analyzed by LC/MS. Data can be normalized using Dex AUC/TAA AUC. Percent hydrolysis can be calculated using the average ratio for active agent AUC/TAA AUC at a time point of maximal drug release. A general method can include using a lyophilized, purified peptide-drug conjugates reconstituted in DMSO following production to generate stock solution at 20 mg/mL. Each conjugate stock can be brought to 0.25 mg/mL in each hydrolysis condition (1×DPBS, human plasma and rat plasma) in triplicate and rocked at 37° C. To quantitate free active agent, 100 μl of the hydrolyzed conjugate solution can be transferred into 1 mL acetonitrile at 4° C. at which time all plasma proteins and intact conjugates can precipitate. This can be performed repeatedly to generate a series of time points (0 hr, 0.5 hr, 1 hr, 2 hr, 4 hr, 6 hr, 8 hr, 24 hr, 32 hr). The acetonitrile solution can be spun at 17,000 g for 5 minutes, and the supernatant removed and added to a 96 well block. The pellet can then be resuspended in 500 μl acetonitrile and re-pelleted as before. The supernatant can be removed and added to the same well in the block. Samples can be prepared for analysis by drying under a nitrogen stream followed by reconstitution in 110 μl 45:55 ACN:Citrate 10 mM pH 5.5. […] Quantification of free active agent (or drug) can be achieved through integration of active agent peaks of the TIC. […]
To quantitate free dexamethasone (Dex), 100 μl of the hydrolyzed conjugate solution was transferred into 1 mL acetonitrile at 4° C. at which time all plasma proteins and intact conjugates precipitated. […]

[2] = Hydrolysis assay of peptide-drug conjugates in rat plasma (free drug by LC/MS); format: in vitro ADME; details: 37° C.
Description: Peptide-drug conjugate peptide(SEQ ID NO: 105)-DMA-dCIC was incubated in rat plasma at 37° C. Samples were removed at regular intervals, processed by solvent extraction, and analyzed by LC/MS to quantitate free dCIC. 11 time-points were measured between 5 min and 56 hours with 3 replicates per time point. The assay was repeated two times.
(§1) In order to determine hydrolysis rates, conjugates can be diluted in PBS, rat plasma, or human plasma and incubated at 37 degrees. Samples can be taken at designated time-points (e.g., 1, 2, 3, 5, 10, 15, 20, 25, 30, 45, 60, or 90 minutes and/or hours after administration). Internal standards such as triamcinolone acetonide (TAA) can be added as an internal standard, and then active agent/TAA can be extracted using acetonitrile, for example. The samples can be dried down, reconstituted, and analyzed by LC/MS. Data can be normalized using Dex AUC/TAA AUC. Percent hydrolysis can be calculated using the average ratio for active agent AUC/TAA AUC at a time point of maximal drug release. A general method can include using a lyophilized, purified peptide-drug conjugates reconstituted in DMSO following production to generate stock solution at 20 mg/mL. Each conjugate stock can be brought to 0.25 mg/mL in each hydrolysis condition (1×DPBS, human plasma and rat plasma) in triplicate and rocked at 37° C. To quantitate free active agent, 100 μl of the hydrolyzed conjugate solution can be transferred into 1 mL acetonitrile at 4° C. at which time all plasma proteins and intact conjugates can precipitate. This can be performed repeatedly to generate a series of time points (0 hr, 0.5 hr, 1 hr, 2 hr, 4 hr, 6 hr, 8 hr, 24 hr, 32 hr). The acetonitrile solution can be spun at 17,000 g for 5 minutes, and the supernatant removed and added to a 96 well block. The pellet can then be resuspended in 500 μl acetonitrile and re-pelleted as before. The supernatant can be removed and added to the same well in the block. Samples can be prepared for analysis by drying under a nitrogen stream followed by reconstitution in 110 μl 45:55 ACN:Citrate 10 mM pH 5.5. To ensure optimal recovery the block can be shaken via plate shaker at 7,000 rpm for 5 minutes during the reconstitution step. Prior to LC/MS the samples can be transferred to a 96 well plate and centrifuged at 6,500 g for 15 minutes. Analysis can be performed on an Agilent 1260 Infinity series HPLC with inline 6120 single quad MS using acetonitrile, water (+0.1% TFA) gradient (shown below) on an InfinityLab Poroshell SB-C18 column. Quantification of free active agent (or drug) can be achieved through integration of active agent peaks of the TIC.
(§2) Lyophilized, purified peptide-drug conjugates were reconstituted in DMSO following production to generate stock solution at 20 mg/mL. Each conjugate stock was brought to 0.25 mg/mL in each hydrolysis condition (1×DPBS, human plasma and rat plasma) in triplicate and rocked at 37° C.
(§3) To quantitate free dexamethasone (Dex), 100 μl of the hydrolyzed conjugate solution was transferred into 1 mL acetonitrile at 4° C. at which time all plasma proteins and intact conjugates precipitated. This was performed repeatedly to generate a series of time points (0 hr, 0.5 hr, 1 hr, 2 hr, 4 hr, 6 hr, 8 hr, 24 hr, 32 hr). The corticosteroid triamcinolone acetonide (25 μl, 0.1 mg/mL in 45:55 ACN:Citrate 10 mM pH 5.5) was supplemented into the acetonitrile solution as an internal standard. The acetonitrile solution was spun at 17,000 g for 5 minutes, and the supernatant removed and added to a 96 well block. The pellet was resuspended in 500 μl acetonitrile and re-pelleted as before. The supernatant was removed and added to the same well in the block.
Samples were prepared for analysis by drying under a nitrogen stream followed by reconstitution in 110 μl 45:55 ACN:Citrate 10 mM pH 5.5. To ensure optimal recovery the block was shaken via plate shaker at 7,000 rpm for 5 minutes during the reconstitution step. […]

[3] = Hydrolysis assay of peptide-drug conjugates in PBS (free Dex by LC/MS); format: physicochemical; details: 37° C.; for Hydrolysis half-life: in PBS, free Dex
Description: as §1, §2, §3
Samples were prepared for analysis by drying under a nitrogen stream followed by reconstitution in 110 μl 45:55 ACN:Citrate 10 mM pH 5.5. To ensure optimal recovery the block was shaken via plate shaker at 7,000 rpm for 5 minutes during the reconstitution step. Prior to LC/MS the samples were transferred to a 96 well plate and centrifuged at 6,500 g for 15 minutes. Analysis was performed on an Agilent 1260 Infinity series HPLC with inline 6120 single quad MS using a gradient of 0.1% TFA in acetonitrile (solvent B), and 0.1% TFA (aq) (solvent A) gradient (shown below) on an InfinityLab Poroshell SB-C18 column. […]

CIA rats = details: for ankle swelling over time as compared to vehicle: 0.2 mg/kg and 0.5 mg/kg Dex equivalents IV days 11 and 12; for spleen weight / thymus weight / total body weight: 0.2 mg/kg and 0.5 mg/kg dose; for change in median ankle diameter between day 11 and day 13 as compared to vehicle / difference from Dex in change in ankle diameter: 0.2 mg/kg dose; for reduction in thymus weight as compared to vehicle: 0.2 mg/kg dose groups
Description: Arthritis was induced in 9-week-old female Lewis rats (Envigo or Charles River Laboratories) by intradermal injection while anesthetized of 400 ug bovine type II collagen (Chondrex Inc, Redmond Wash.) in 2 adjacent 200 ul (1 mg/ml) doses on day 0. Collagen is prepared for injection by dissolving at 2 mg/ml in 0.01N glacial acetic acid in sterile water and rocking at 4° C. overnight then emulsifying in Freund's incomplete adjuvant (IFA, Sigma Aldrich). To emulsify, equal volumes of collagen solution and IFA are drawn up into separate syringes, which are joined by a 3-way stopcock. While on ice, the collagen and IFA are mixed by pressing between the two syringes rapidly for 10 minutes. Quality of the emulsification is tested after 10 minutes of mixing by dropping a small amount of mixture in water. A properly emulsified solution will remain as a discrete droplet and not disperse in the water. On day 7, rats are challenged with a second intradermal injection of 100 ug of collagen in 100 ul, 1 mg/ml, collagen in IFA solution prepared fresh. Body weight and ankle diameter measurements are recorded daily from day 7 through the end of the study. Ankle diameter was measure by a single researcher using a Fowler Digitrix 2 micrometer. Three measurements of each ankle were taken of the lateral dimension at the tarsus of lightly anesthetized rats. The reported ankle diameter measurement is the mean of the three measurements.
Arthritis was induced as described in four cohorts of 9-week-old female Lewis rats. Rats were randomly placed in treatment groups, balancing compound and dose groups across cohorts. […] Rats were dosed by tail vein injection on days 11 and 12 and euthanized on day 13 by CO2 asphyxiation. Immediately after cessation of respiratory movement, blood was collected by cardiac puncture, synovial fluid was collected from both knees, one hind limb was fixed in formalin and the alternate ankle was frozen on dry ice. Thymus, spleen, liver, and kidney weights were recorded.
CIA Response study design.
The aim of the study was to test the 4 conjugates with various linkers at two different doses in vivo in CIA rats to assess the following: ability to deliver sufficient dexamethasone to the joint to show functionality and potential therapeutic effect in the disease model.
CIA was induced in female Lewis rats (as described above, see EXAMPLE 21). Body weight and ankle joint diameters were measured on day 0 and then daily from day 7 until euthanasia. […] At euthanasia, synovial fluid was collected from both knees, one hind limb was fixed in formalin and the alternate ankle was frozen on dry ice. Thymus, spleen, liver, and kidney weights were recorded. Blood samples were submitted for CBC/Chemistry analysis, and the remaining plasma was frozen.

[4] = Rat Plasma, release of free Dex, time points to 32 hr, read-out: Half-life (hours) as measured in the hydrolysis experiments (converted)
[5] = in rat plasma, free Dex, read-out: Hydrolysis half-life (converted)

SMILES	half-life at 0.25 mg/mL [1] [h]	half-life at 0.25 mg/mL [2, 4] [h]	half-life at 0.25 mg/mL [2, 5] [h]	half-life at 0.25 mg/mL ([3]; PBS, release of free Dex, time points to 32 hr, read-out: Half-life (hours) as measured in the hydrolysis experiments (converted)) [h]	Hydrolysis half-life [3]	ankle swelling over time as compared to vehicle (CIA rats)	spleen weight (CIA rats)	thymus weight (CIA rats)	total body weight (CIA rats)	change in median ankle diameter between day 11 and day 13 as compared to vehicle (CIA rats)	difference from Dex in change in ankle diameter (CIA rats)	reduction in thymus weight as compared to vehicle (CIA rats)	mortality and tolerability (CIA rats; 1 mg/kg Dex equivalents IV, some rats)	Half-life (hours) as measured in the hydrolysis experiments ([3]; PBS, release of free Dex, time points to 32 hr)
CC[C@H](C)[C@@H]1NC(=O)[C@@H]2CSSC[C@H](NC(=O)[C@H](CCCNC(=N)N)NC(=O)[C@@H](NC(=O)[C@H](CC(N)=O)NC(=O)[C@@H](NC(=O)[C@@H]3CCCN3C(=O)[C@@H](NC(=O)CNC(=O)[C@H](CO)NC(=O)CNC(=O)CCCC(=O)OCC(=O)[C@@]3(O)[C@H](C)C[C@H]4[C@@H]5CCC6=CC(=O)C=C[C@]6(C)[C@@]5(F)[C@@H](O)C[C@@]43C)C(C)C)[C@@H](C)CC)C(C)C)C(=O)N[C@@H](CCCNC(=N)N)C(=O)NCC(=O)N[C@@H](CO)C(=O)N[C@@H](CCCNC(=N)N)C(=O)N[C@@H](CC(=O)O)C(=O)N[C@H]3CSSC[C@H](NC(=O)[C@H](CCCNC(=N)N)NC(=O)[C@H](CO)NC(=O)[C@H](CC(N)=O)NC1=O)C(=O)N[C@@H](Cc1c[nH]cn1)C(=O)N[C@H](C(=O)N[C@H](C(=O)N1CCC[C@H]1C(=O)O)[C@@H](C)O)CSSC[C@H](NC(=O)[C@@H]1CCCN1C(=O)[C@H](CC(=O)O)NC(=O)[C@H](CC(C)C)NC3=O)C(=O)N[C@@H](CCCNC(=N)N)C(=O)N[C@@H](CCCNC(=N)N)C(=O)N[C@@H](C)C(=O)NCC(=O)N[C@@H](CCSC)C(=O)N[C@@H](CCCNC(=N)N)C(=O)N[C@@H](Cc1ccccc1)C(=O)NCC(=O)N[C@@H](CCCNC(=N)N)C(=O)N2 [Compound 23, Peptide(SEQ ID NO: 105)-glutaric acid-Dex] (X3-GSGVPINVRCRGSRDCLDPCRRAGMRFGRCINSRCHCTP-OH; disulfide 10-30, 16-35, 20-37 (inferred); C-terminus assumed)	1.7	1.9	1.9	6	6 h	reduction in ankle swelling	reduction	reduction	reduction	statistically significant reduction in ankle diameter	no statistically significant difference	statistically significant	died overnight	
CC[C@H](C)[C@@H]1NC(=O)[C@@H]2CSSC[C@H](NC(=O)[C@H](CCCNC(=N)N)NC(=O)[C@@H](NC(=O)[C@H](CC(N)=O)NC(=O)[C@@H](NC(=O)[C@@H]3CCCN3C(=O)[C@@H](NC(=O)CNC(=O)[C@H](CO)NC(=O)CNC(=O)[C@H]3CC[C@H](C(=O)OCC(=O)[C@@]4(O)[C@H](C)C[C@H]5[C@@H]6CCC7=CC(=O)C=C[C@]7(C)[C@@]6(F)[C@@H](O)C[C@@]54C)CC3)C(C)C)[C@@H](C)CC)C(C)C)C(=O)N[C@@H](CCCNC(=N)N)C(=O)NCC(=O)N[C@@H](CO)C(=O)N[C@@H](CCCNC(=N)N)C(=O)N[C@@H](CC(=O)O)C(=O)N[C@H]3CSSC[C@H](NC(=O)[C@H](CCCNC(=N)N)NC(=O)[C@H](CO)NC(=O)[C@H](CC(N)=O)NC1=O)C(=O)N[C@@H](Cc1c[nH]cn1)C(=O)N[C@H](C(=O)N[C@H](C(=O)N1CCC[C@H]1C(=O)O)[C@@H](C)O)CSSC[C@H](NC(=O)[C@@H]1CCCN1C(=O)[C@H](CC(=O)O)NC(=O)[C@H](CC(C)C)NC3=O)C(=O)N[C@@H](CCCNC(=N)N)C(=O)N[C@@H](CCCNC(=N)N)C(=O)N[C@@H](C)C(=O)NCC(=O)N[C@@H](CCSC)C(=O)N[C@@H](CCCNC(=N)N)C(=O)N[C@@H](Cc1ccccc1)C(=O)NCC(=O)N[C@@H](CCCNC(=N)N)C(=O)N2 [Compound 25, Peptide(SEQ ID NO: 105)-trans-1,4-cyclohexyl-Dex] (X4-GSGVPINVRCRGSRDCLDPCRRAGMRFGRCINSRCHCTP-OH; disulfide 10-30, 16-35, 20-37 (inferred); C-terminus assumed)	21.3	3.4	3.4		No Dex release ≤32 h	reduction in ankle swelling	reduction	reduction	reduction	statistically significant reduction in ankle diameter	no statistically significant difference	statistically significant		undetectable ≤32
